Positions count from the first letter of the chain named. Names may count otherwise. Each block holds one binder with its values, some of them ahead of it.
Key:
[1] = molecular target: T1, QP534 (SIRPαV5-mFC(mIgG2a)) (human, limits assumed); assay: ELISA, human SIRPα V5 recombinant protein (QP534) coated, HRP anti-human Fc detection
T1 construct: also called human SIRPα V5 recombinant protein (QP534)
T1 chain: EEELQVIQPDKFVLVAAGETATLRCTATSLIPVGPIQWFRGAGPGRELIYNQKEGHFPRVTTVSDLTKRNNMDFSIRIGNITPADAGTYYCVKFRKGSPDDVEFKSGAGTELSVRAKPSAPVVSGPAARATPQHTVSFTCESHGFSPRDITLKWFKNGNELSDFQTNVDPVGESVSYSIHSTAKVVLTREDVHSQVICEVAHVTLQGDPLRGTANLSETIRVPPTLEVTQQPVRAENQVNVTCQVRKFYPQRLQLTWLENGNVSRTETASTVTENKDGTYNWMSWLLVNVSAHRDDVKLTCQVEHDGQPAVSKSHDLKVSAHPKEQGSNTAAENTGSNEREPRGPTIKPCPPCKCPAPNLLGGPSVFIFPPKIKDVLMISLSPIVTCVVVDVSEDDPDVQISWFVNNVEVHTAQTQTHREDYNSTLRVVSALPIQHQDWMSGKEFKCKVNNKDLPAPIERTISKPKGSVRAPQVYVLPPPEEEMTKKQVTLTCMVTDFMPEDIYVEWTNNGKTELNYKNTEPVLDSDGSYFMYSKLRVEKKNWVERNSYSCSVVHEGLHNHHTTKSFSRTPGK

[2] = molecular target: T2, QP535 (SIRPαV6-mFC(mIgG2a)) (human, limits assumed); assay: ELISA, human SIRPα V6 recombinant protein (QP535) coated, HRP anti-human Fc detection
T2 construct: also called human SIRPα V6 recombinant protein (QP535)
T2 chain: T1 chain with F12S, S75P

[3] = molecular target: T3, QP532 (SIRPαV3-mFC(mIgG2a)) (human); assay: ELISA, human SIRPα V3 recombinant protein (QP532) coated, HRP anti-human Fc detection
T3 construct: also called human SIRPα V3 recombinant protein (QP532)

[4] = molecular target: T4, QP533 (SIRPαV4-mFC(mIgG2a)) (human, limits assumed); assay: ELISA, human SIRPα V4 recombinant protein (QP533) coated, HRP anti-human Fc detection
T4 construct: also called human SIRPα V4 recombinant protein (QP533)
T4 chain: T1 chain with E3G, F12S, L14S, T20S, T22I, R24H

[5] = molecular target: T5, QP536 (SIRPαV7-mFC(mIgG2a)) (human); assay: ELISA, human SIRPα V7 recombinant protein (QP536) coated, HRP anti-human Fc detection
T5 construct: also called human SIRPα V7 recombinant protein (QP536)

[6] = molecular target: T6, human SIRPα V1 on U-937 cells (human, UniProt P78324 31-504); assay: FACS on U-937 cells
T6 construct: whole, on cells

QP093 (human SIRPα V1 …) = molecular target: T7, QP093 (human SIRPα V1 ECD(E31-R370)-mFC(IgG2a)) (human); assay: ELISA, human SIRPα V1 recombinant protein (QP093) coated, HRP anti-human Fc detection
T7 construct: also called Human SIRPα V1 recombinant protein (QP093)
T7 chain: T1 chain with F12S

EC50 [1]: 0.15 nM
EC50 [2]: 0.224 nM
EC50 [3]: 0.144 nM
EC50 [4]: 0.151 nM
EC50 [5]: 0.176 nM
EC50 [6]: 0.076 nM
EC50 (QP093 (human SIRPα V1 …)): 0.161 nM
B1: QP32700279 (antibody, human IgG1, kappa, L234A L235A, V domains shown)
VH: QVQLVQSGAEVKKPGASVKVSCKASGYTFTNYWINWVRQAPGQGLEWIAMIDPSDSETHYNQIFKDRATLTTDTSTSTAYMELRSLRSDDTAVYYCAMDYGSLYAMDYWGRGTLVTVSS
VL: DIVLTQSPDSLAVSLGERATINCRASQSVRSSGYNWIFWYQQKPGQPPKLLIYLASNRDSGVPDRFSGSGSGTDFTLTISSLQAEDVAVYYCQHSRELPTFGQGTKLEIKR
notes: also called SIRPα monoclonal antibody CHO71

EC50 [1]: 0.167 nM
EC50 [2]: 0.273 nM
EC50 [3]: 0.31 nM
EC50 [4]: 0.169 nM
EC50 [5]: 0.247 nM
EC50 [6]: 0.158 nM
EC50 (QP093 (human SIRPα V1 …)): 0.177 nM
B2: QP37503751 (1H9 analog) (antibody, human IgG1, kappa, N297A, V domains shown)
VH: QVQLVQSGAEVKKPGASVKVSCKASGYTFTSYWITWVKQAPGQGLEWIGDIYPGSGSTNHIEKFKSKATLTVDTSISTAYMELSRLRSDDTAVYYCATGYGSSYGYFDYWGQGTLVTVSS
VL: DIQMTQSPSSLSASVGDRVTITCRASENIYSYLAWYQQKPGKAPKLLIYTAKTLAEGVPSRFSGSGSGTDFTLTISSLQPEDFATYYCQHQYGPPFTFGQGTKLEIKR
notes: also called hz1H9 hIgG1(N297A)

EC50 [1]: 0.438 nM
EC50 [2]: 0.884 nM
EC50 [4]: 0.539 nM
EC50 [6]: 0.581 nM
EC50 (QP093 (human SIRPα V1 …)): 0.438 nM
B3: QP250251 (18D5 analog) (antibody, human IgG4 S228P, kappa, V domains shown)
VH: QVQLQQPGAELVRPGSSVKLSCKASGYTFTSYWVHWVKQRPIQGLEWIGNIDPSDSDTHYNQKFKDKASLTVDKSSSTAYMQLSSLTFEDSAVYYCVRGGTGTMAWFAYWGQGTLVTVSA
VL: DVVMTQTPLSLPVSLGDQASISCRSSQSLVHSYGNTYLYWYLQKPGQSPKLLIYRVSNRFSGVPDRFSGSGSGTDFTLKISRVEAEDLGVYFCFQGTHVPYTFGSGTKLEIKR
notes: also called SIRPα antibody 18D5 from OSE

EC50 [1]: 0.418 nM
EC50 [2]: 0.603 nM
EC50 [3]: 0.433 nM
EC50 [4]: 0.439 nM
EC50 [5]: 0.376 nM
EC50 [6]: 0.21 nM
EC50 (QP093 (human SIRPα V1 …)): 0.442 nM
B4: QP026249 (KWAR23 analog) (antibody, human IgG4 S228P, kappa)
heavy: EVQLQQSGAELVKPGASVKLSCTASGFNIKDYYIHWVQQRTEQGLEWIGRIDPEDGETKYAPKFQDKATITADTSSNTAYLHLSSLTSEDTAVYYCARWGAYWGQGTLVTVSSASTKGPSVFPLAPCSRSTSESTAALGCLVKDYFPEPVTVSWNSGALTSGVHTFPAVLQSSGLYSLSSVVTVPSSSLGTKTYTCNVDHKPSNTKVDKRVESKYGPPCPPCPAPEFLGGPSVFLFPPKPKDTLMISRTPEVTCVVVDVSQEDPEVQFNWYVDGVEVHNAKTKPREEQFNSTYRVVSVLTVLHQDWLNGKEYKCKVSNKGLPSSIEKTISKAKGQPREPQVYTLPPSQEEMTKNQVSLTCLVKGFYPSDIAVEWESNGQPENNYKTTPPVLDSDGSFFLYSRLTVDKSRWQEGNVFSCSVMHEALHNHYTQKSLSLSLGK
light: QIVLTQSPAIMSASPGEKVTLTCSASSSVSSSYLYWYQQKPGSSPKLWIYSTSNLASGVPARFSGSGSGTSYSLTISSMEAEDAASYFCHQWSSYPRTFGAGTKLELKRTVAAPSVFIFPPSDEQLKSGTASVVCLLNNFYPREAKVQWKVDNALQSGNSQESVTEQDSKDSTYSLSSTLTLSKADYEKHKVYACEVTHQGLSSPVTKSFNRGEC
notes: also called KAWA23 analog; control antibody KWAR23 (QP026249), human IgG4
